The source of these data is the supplement of paper PMC9170038.

In the data set the test system is MS2 coat protein. Description: apparent KD of MS2 coat protein; designed switch direction (-1 OFF switch, 1 ON switch): -1; higher = weaker reporter binding. In short, it runs like this:
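Designed RNA switches with common flanks were made on Illumina chips by stalled E. coli RNA polymerase. Titration with SNAP-549-labelled MS2 coat protein doubled from 0.7 or 1.5 nM up to 3 µM. Apparent KD is each design's median over clusters after curve-fitting normalised fluorescence.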

Where [1] appears, read: input ligand: microRNA oligo, concentration not stated.
Setting [2] is: Eterna round: R95, input ligand: microRNA oligo, concentration not stated.
[3] abbreviates: Eterna round: R95, input ligand: FMN 200 uM.
The mark [4] stands for this setting: Eterna round: R95, input ligand: none.

Regarding “AAUUAGUAUGUGAGGAUAUUGAUGUAAUGACGGUUUAAGAAGGCACAUGAGGAUCACCCAUGUAGGUGCUCACG [JR_BMEx4_Sub007] (Eterna round: R97, puzzle: Brourd's mod of Exclusion 4)”, the “apparent KD of MS2 coat protein” value by setting is: (input ligand: FMN 200 uM) 0.38 µM; (input ligand: none) 0.0704 µM.
On the same counts, the results for “AAUUAGUAUGUGAGGAUAUUGAUGUAAUGAUGGUUUAAGAAGGCACAUGAGGAUCACCCAUGUAGGAAAUCACG [JR_BMEx4_Sub006] (Eterna round: R97, puzzle: Brourd's mod of Exclusion 4)” are 0.0378 µM and 0.029 µM.
Take “AAUUAUUAUUGAGGAUAUCGUAUUGAAACAAUACGAGAAGGCGGAAUAAACAUGAGGAUCACCCAUGUGAGCCUGAUGCUUGUG [Ex NG1 #42] (Eterna round: R96, puzzle: Exclusion NG 1)”: the “apparent KD of MS2 coat protein” value under setting [1] came out at 0.0134 µM.
As to “AAUUCACAUGAGGAUCACCCAUGUCAGGAUAUGGUUUCACGUGUUUCGGUGCUUGAGGCCAGAAGGGACAGCUA (puzzle: Exclusion 1)”, the “apparent KD of MS2 coat protein” value under setting [2] stood at 0.0624 µM.
The same measure, in the same setting: with “AAUUCACAUGAGGAUCACCCAUGUCAGGAUAUGGUUUCACGUUUUUCUUUUCUUGAGGCCAGAAGGGACAGCUA (puzzle: Exclusion 1)” the figure was 0.0601 µM.
Take “AAUUCGGCAGGAUAUACAUGAGGAUCACCCAUGUAAAUUUUUCGUUUAACUUGAAUGUGUAGAAGGGCCAUUAA [Ex3 #63] (Eterna round: R97, puzzle: Exclusion 3)”: the “apparent KD of MS2 coat protein” value reads like this: (input ligand: FMN 200 uM) 0.0276 µM; (input ligand: none) 0.0288 µM.
On to “AAUUGACGCCAAAUAUACAACAUGAGGAUCACCCAUGUACCCUAGGUACGCUCGCAGGCAAGCUUUGCUCGUCCACA [Eternabot (L1) Solution 33] (Eterna round: R97, puzzle: Sensor, turn-off variant 1)”, for which the “apparent KD of MS2 coat protein” value is, setting by setting: (input ligand: FMN 200 uM) 0.0402 µM; (input ligand: none) 0.0479 µM.
For the sequence “AAUUUCAUUGUGAGGAUAUGCCCAAAUAAAAGCGGGCAGAAGGCACAUGAGGAUCACCCAUGUCCUGCGGUUAU [salish99_bmx4_r4_152] (Eterna round: R97, puzzle: Brourd's mod of Exclusion 4)”, the “apparent KD of MS2 coat protein” value runs as follows: (input ligand: FMN 200 uM) 0.471 µM; (input ligand: none) 0.0375 µM.
As to “ACAAGAUCGGAAGGAUAUUGUACAUGAGGAUCACCCAUGUAAUAAAUGAGGAUCACGGAUGUAGUCAAGAAGGUCCGGAUAAGA [Ostracism 3 - Jieux - Exclusion NG 2] (Eterna round: R96, puzzle: Exclusion NG 2)”, the “apparent KD of MS2 coat protein” value is, setting by setting: (input ligand: FMN 200 uM) 0.0369 µM; under setting [1], 0.0412 µM; (input ligand: none) 0.0438 µM.
“ACAAGCUUAAAAAUCCUAAACAUGAGGAUCACCCAUGUUCGUCUUAUAAAAAUAAAAAUAAAAAAUAAAAAAUAAAA [Sensor V2: 70] (Eterna round: R96, puzzle: Sensor v2, turn-off variant)”: the “apparent KD of MS2 coat protein” value by setting is: (input ligand: FMN 200 uM) 0.0491 µM; under setting [1], 0.228 µM; (input ligand: none) 0.0519 µM.
With “ACAAGCUUAAUCAGUAUGAACAUGAGGAUCACCCAUGUAAAAGGGAAGACAAUUGGGUUAUUUAAAGCUCGUCUUAU [JR_STOV1_Sub016] (Eterna round: R97, puzzle: Sensor, turn-off variant 1)”, the “apparent KD of MS2 coat protein” value runs as follows: (input ligand: FMN 200 uM) 0.0576 µM; (input ligand: none) 0.0672 µM.
As to “ACAAGCUUUUAGAUUUUCAACAUGAGGAUCACCCAUGUUCGUCUUAUGCUAGUGCUAGUGCGGUGUACUGGUAUUAG [JL TOV1 3.80 sellena mod] (Eterna round: R97, puzzle: Sensor, turn-off variant 1)”, the “apparent KD of MS2 coat protein” value was 0.0169 µM (input ligand: FMN 200 uM) and 0.016 µM (input ligand: none).
In the same order, the values of “ACAAGCUUUUAGAUUUUCAACAUGAGGAUCACCCAUGUUCGUCUUAUGCUAGUGCUAGUGCGGUGUACUGGUAUUGG [JL TOV1 3.79 sellena mod] (Eterna round: R97, puzzle: Sensor, turn-off variant 1)” are 0.0192 µM and 0.0195 µM.
As for “ACAAGCUUUUUGCUCGUCUACAUGAGGAUCACCCAUGUAGUGUGUUAGUGGUGAAGAUAGAUUGAGCGUAGUAGGUA [JR_SV3TOV1_Sub072] (puzzle: Sensor v3, turn-off variant 1)”, the “apparent KD of MS2 coat protein” value runs as follows: under setting [3], 0.102 µM; under setting [2], 0.0795 µM; under setting [4], 0.109 µM.
On to “ACAAGCUUUUUGUUCGUCUUAUAAAAUCCUAAGAGGAAAACAUGAGGAUCACCCAUGUAACAAAGACGGACUCAUGU [Sesor Array 12 - Jieux - Sensor v3, turn-off variant 2] (Eterna round: R96, puzzle: Sensor v3, turn-off variant 2)”, for which the “apparent KD of MS2 coat protein” value was 0.0115 µM (input ligand: FMN 200 uM) and 0.0991 µM under setting [1].
As to “ACAAGCUUUUUGUUCGUCUUAUAAAAUCCUAAGAGGAAAACAUGAGGAUCACCCAUGUAACAAAGACGGACUCAUGU [Sesor Array 12 - Jieux - Sensor v3, turn-off variant 2] (puzzle: Sensor v3, turn-off variant 2)”, the “apparent KD of MS2 coat protein” value came out at 0.0134 µM under setting [3], 0.125 µM under setting [2] and 0.0108 µM under setting [4].
Consider “ACACAUGAGGAUCACCCAUGUCGGGUCAUAUCCUUCGAGGGCUAGGAUAUCGGGACUACGAAGCCCGAGAAGGAGCACUCGUUA [Ceorsobi] (Eterna round: R96, puzzle: Exclusion NG 3)”, for which the “apparent KD of MS2 coat protein” value stood at 0.251 µM (input ligand: FMN 200 uM), 0.0663 µM under setting [1] and 0.105 µM (input ligand: none).
On to “ACACUACAUGAGGAUCACCCAUGUCAGGAUAUCGAUAUCACAACUCAUCAACCUCACUCGAGAAGGGACACAUA [wifeneedsadrink] (puzzle: Exclusion 1)”, for which, under setting [2], the “apparent KD of MS2 coat protein” value came to 0.0221 µM.
As for “ACACUGCGAGGAUAUACAUGAGGAUCACCCAUGUGUCGGCAGGUACGGUAGCACUAGUGUAGAAGGCGCAUUAG [EX3 #40] (Eterna round: R97, puzzle: Exclusion 3)”, the “apparent KD of MS2 coat protein” value is, setting by setting: (input ligand: FMN 200 uM) 0.017 µM; (input ligand: none) 0.0154 µM.
As to “ACAGCGUGAGGAUAUACAUGAGGAUCACCCAUGUAUGGCAGGUUAUCCUGUCGUAUGUGUAGAAGGCACGCUGU [Exclusion 3 - Oddities v.3 ( A small slide from ms2 to fmn)] (puzzle: Exclusion 3)”, the “apparent KD of MS2 coat protein” value under setting [2] came out at 0.0508 µM.
Consider “ACAGUUCUGCAAGGAUAUCGUCCUAGUUUGUUUCGAGAAGGUGCUUUAGUUUAUUCCUUUUGUUUACAUGAGGAUCACCCAUGU [JR_ExcNG1_Sub050] (Eterna round: R96, puzzle: Exclusion NG 1)”, for which the “apparent KD of MS2 coat protein” value under setting [1] was 0.018 µM.
As to “ACAUCACAGCUAGGAUAUAGAUGACAUGAGGAUCACCCAUGUUGUCCCAUGUUGACGAAAACCGACUAGAAGGAGCUACAGAUG [Ex NG2 #5] (Eterna round: R96, puzzle: Exclusion NG 2)”, the “apparent KD of MS2 coat protein” value by setting is: (input ligand: FMN 200 uM) 0.0593 µM; under setting [1], 0.0526 µM; (input ligand: none) 0.0501 µM.
In the same order, the values of “ACAUCACAGCUAGGAUAUAUAUGACAUGAGGAUCACCCAUGUUGUCCCAUGUUGACGAAAACCGAAUAGAAGGAGCCACAGAUG [Ex NG2 #3] (Eterna round: R96, puzzle: Exclusion NG 2)” are 0.0913 µM, 0.0615 µM and 0.0672 µM.
